Experimental data published in paper PMC6158172, “A bidentate Polycomb Repressive-Deubiquitinase complex is required for efficient activity on nucleosomes” (Nature Communications, 2018).

B1: Calypso^43–404 (wild type), as in the Calypso^43–404–ASX^207–340 complex [Drosophila melanogaster] / itself (parent)
chain: ADGWLELESDPGLFTLLLKDFGCHDVQVEEVYDLQKPIESPYGFIFLFRWIEERRARRKIVETTAEIFVKDEEAISSIFFAQQVVPNSCATHALLSVLLNCNENNLQLGDTLSRLKTHTKGMSPENKGLAIGNTPELACAHNSHAMPQARRRLERTGAGVSSCRFTGEAFHFVSFVPINGQLFELDGLKPYPMNHGGWEDSEDWTDKFRRVMAERLGIATGEQDIRFNLMAVVPDRRIAITHKLKMLRTNQAIVSGTLQKLLKADEQGESGNGDSQRPDTPTTLLEPSAFTARDLQSLLKNLDTEIAINEQHLADENDRRHMFKVDASRRTHNYDKFICTFLSMLAHQGVLGELVSQHLLPS

Variants of: B1
Experiment: SEC-MALLS (Calypso–Calypso dimerisation within the Calypso–ASX complex)
Conditions: with itself; 50 μM; 20 mM HEPES pH 7.5 and 100 mM NaCl; read off a plot

screen value [kDa]	Variant
77	chain 1 M246R
